B1: NEDD4 family-interacting protein 1 (Mus musculus), Q8R0W6 (parent)
chain: MALALAALAAVEPACGSGYQQLQNEEEPGEPEQTAGDAPPPYSSITAESAAYFDYKDESGFPKPPSYNVATTLPSYDEAERTKTEATIPLVPGRDEDFVGRDDFDDTDQLRIGNDGIFMLTFFMAFLFNWIGFFLSFCLTTSAAGRYGAISGFGLSLIKWILIVRFSTYFPGYFDGQYWLWWVFLVLGFLLFLRGFINYAKVRKMPETFSNLPRTRVLFIY
B2: WW domain-binding protein 1 (Mus musculus), P97764 (parent)
chain: MARASSRNSSEEAWGSLQAPQQQQSPAASSLEGAIWRRAGTQTRALDTILYHPQQSHLLRELCPGVNTQPYLCETGHCCGETGCCTYYYELWWFWLLWTVLILFSCCCAFRHRRAKLRLQQQQRQREINLLAYHGACHGAGPVPTGSLLDLRLLSAFKPPAYEDVVHHPGTPPPPYTVGPGYPWTTSSECTRCSSESSCSAHLEGTNVEGVSSQQSALPHQEGEPRAGLSPVHIPPSCRYRRLTGDSGIELCPCPDSSEGEPLKEARASASQPDLEDHSPCALPPDSVSQVPPMGLASSCGDIP
B3: RING finger protein 11 (Mus musculus), Q9QYK7 (parent)
chain: MGNCLKSPTSDDISLLHESQSDRASFGEGTEPDQEPPPPYQEQVPVPIYHPTPSQTRLATQLTEEEQIRIAQRIGLIQHLPKGVYDPGRDGSEKKIRECVICMMDFVYGDPIRFLPCMHIYHLDCIDDWLMRSFTCPSCMEPVDAALLSSYETN
B4: Lipopolysaccharide-induced tumor necrosis factor-alpha factor homolog (Mus musculus), Q9JLJ0 (parent)
chain: MSAPGPYQAAAGPSVVPTAPPTYEETVGVNSYYPTPPAPMPGPATGLITGPDGKGMNPPSYYTQPVPVPNANAIAVQTVYVQQPVSFYDRPVQMCCPSCSKMIVTQLSYNAGALTWLSCGSLCLLGCVAGCCFIPFCVDALQDVDHYCPNCKALLGTYKRL
B5: Protein TMEPAI (Mus musculus), Q9D7R2 (parent)
chain: MSPARATAQRSLFPSMEITELEFVQIVVIVVVMMVMVVMITCLLSHYKLSARSFISRHSQARRRDDGLSSEGCLWPSESTVSGGMPEPQVYAPPRPTDRLAVPPFIQRSRFQPTYPYLQHEIALPPTISLSDGEEPPPYQGPCTLQLRDPEQQLELNRESVRAPPNRTIFDSDLIDSTMLGGPCPPSSNSGISATCYSSGGRMEGPPPTYSEVIGHYPGSSFQHQQSNGPSSLLEGTRLHHSHIAPLENKEKEKQKGHPL
B6: WW domain-binding protein 2 (Mus musculus), P97765 (parent)
chain: MALNKNHSEGGGVIVNNTESILMSYDHVELTFNDMKNVPEAFKGTKKGTVYLTPYRVIFLSKGKDAMQSFMMPFYLMKDCEIKQPVFGANFIKGIVKAEAGGGWEGSASYKLTFTAGGAIEFGQRMLQVASQASRGEVPNGAYGYPYMPSGAYVFPPPVANGMYPCPPGYPYPPPPPEFYPGPPMMDGAMGYVQPPPPPYPGPMEPPVSGPSAPATPAAEAKAAEAAASAYYNPGNPHNVYMPTSQPPPPPYYPPEDKKTQ
B7: Protein BEAN1 (Mus musculus), Q9EQG5 (parent)
chain: MSFKRPCPLARYNRTSYFYPTTFSESSEHSHLLVSPVLVASAVIGVVITLSCITIIVGSIRRDRQARIQRHHHRHRRHHHHHRHRRRRHREYASGGHTHSRSSPRMPYACSPAEDWPPPLDVSSEGDVDVTVLWELYPDSPPGYEECMGPGATQLYVPTDAPPPYSMTDSCPRLNGALDSDSGQSRSHRQQEQRTQGQSRLHTVSMDTLPPYEAVCGTGSPSDLLPLPGPEPWPSNSQGSPIPTQAPMPSPERIV

Variants of: B1
Conditions: with nedd4_mouse Nedd4, P46935
Target sequence in this assay (P46935 whole entry): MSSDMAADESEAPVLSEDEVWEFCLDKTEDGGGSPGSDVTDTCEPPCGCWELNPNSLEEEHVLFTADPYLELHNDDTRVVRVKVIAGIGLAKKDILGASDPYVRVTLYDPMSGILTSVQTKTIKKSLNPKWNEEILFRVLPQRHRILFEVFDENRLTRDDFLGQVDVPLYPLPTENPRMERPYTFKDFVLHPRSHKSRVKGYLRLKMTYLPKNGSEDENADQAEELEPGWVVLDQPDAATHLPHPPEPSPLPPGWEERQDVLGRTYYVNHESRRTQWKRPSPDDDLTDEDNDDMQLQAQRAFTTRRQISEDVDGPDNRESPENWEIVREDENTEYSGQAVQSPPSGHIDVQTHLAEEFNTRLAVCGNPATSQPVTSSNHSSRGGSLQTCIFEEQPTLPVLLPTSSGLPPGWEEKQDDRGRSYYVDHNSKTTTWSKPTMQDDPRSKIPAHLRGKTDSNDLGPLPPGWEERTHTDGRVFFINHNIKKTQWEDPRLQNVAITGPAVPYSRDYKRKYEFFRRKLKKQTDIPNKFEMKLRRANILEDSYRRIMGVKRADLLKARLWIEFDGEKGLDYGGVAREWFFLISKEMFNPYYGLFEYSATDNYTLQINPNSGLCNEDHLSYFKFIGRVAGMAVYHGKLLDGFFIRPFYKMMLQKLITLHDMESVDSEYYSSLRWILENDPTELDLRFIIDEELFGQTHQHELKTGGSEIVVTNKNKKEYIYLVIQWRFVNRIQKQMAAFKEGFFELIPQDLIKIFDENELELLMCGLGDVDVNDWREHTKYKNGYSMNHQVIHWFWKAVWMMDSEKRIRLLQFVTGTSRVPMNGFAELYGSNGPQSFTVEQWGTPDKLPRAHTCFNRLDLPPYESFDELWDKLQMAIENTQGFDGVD

effect of a mutation on the interaction	Variant
decreasing interaction strength	Y42A

Variants of: B2
Conditions: with nedd4_mouse Nedd4, P46935
Target sequence in this assay (P46935 whole entry): as above

effect of a mutation on the interaction	Variant
disrupting interaction strength	Y162A

Variants of: B2
Conditions: with nedd4_mouse Nedd4, P46935
Remark: another data set of the same source
Target sequence in this assay (P46935 whole entry): as above

effect of a mutation on the interaction	Variant
disrupting interaction strength	Y176A

Variants of: B3
Conditions: with nedd4_mouse Nedd4, P46935
Target sequence in this assay (P46935 whole entry): as above

effect of a mutation on the interaction	Variant
disrupting interaction	Y40A

Variants of: B3
Conditions: with nedd4_mouse Nedd4, P46935
Remark: another data set of the same source
Target sequence in this assay (P46935 whole entry): as above

effect of a mutation on the interaction	Variant
disrupting interaction strength	Y40A

Variants of: B4
Conditions: with nedd4_mouse Nedd4, P46935
Target sequence in this assay (P46935 whole entry): as above

effect of a mutation on the interaction	Variant
disrupting interaction strength	Y23A

Variants of: B5
Conditions: with nedd4_mouse Nedd4, P46935

effect of a mutation on the interaction	Variant
disrupting interaction strength	Y210A

Variants of: B5
Conditions: with nedd4_mouse Nedd4, P46935
Remark: another data set of the same source

effect of a mutation on the interaction	Variant
disrupting interaction strength	Y210A

Variants of: B5
Conditions: with nedd4_mouse Nedd4, P46935
Remark: another data set of the same source

effect of a mutation on the interaction	Variant
decreasing interaction strength	Y139A

Variants of: B6
Conditions: with nedd4_mouse Nedd4, P46935

effect of a mutation on the interaction	Variant
decreasing interaction strength	Y200A

Variants of: B6
Conditions: with nedd4_mouse Nedd4, P46935
Remark: another data set of the same source

effect of a mutation on the interaction	Variant
decreasing interaction strength	Y200A

Variants of: B6
Conditions: with nedd4_mouse Nedd4, P46935
Remark: another data set of the same source

effect of a mutation on the interaction	Variant
disrupting interaction strength	Y200A

Variants of: B6
Conditions: with nedd4_mouse Nedd4, P46935
Remark: another data set of the same source

effect of a mutation on the interaction	Variant
decreasing interaction strength	Y252A

Variants of: B7
Conditions: with nedd4_mouse Nedd4, P46935

effect of a mutation on the interaction	Variant
disrupting interaction strength	Y165A
disrupting interaction strength	Y144A
disrupting interaction strength	Y144A;Y165A

Variants of: B7
Conditions: with nedd4_mouse Nedd4, P46935
Remark: another data set of the same source

effect of a mutation on the interaction	Variant
disrupting interaction strength	Y144A;Y165A
